According to US20260097113A1 (Pfizer, published 2026):

B1: AM14 (trimeric prefusion specific antibody of the AM14 ELISA) (antibody, V domains shown)
VH: EVQLVESGGGVVQPGRSLRLSCAASGFSFSHYAMHWVRQAPGKGLEWVAVISYDGENTYYADSVKGRFSISRDNSKNTVSLQMNSLRPEDTALYYCARDRIVDDYYYYGMDVWGQGATVTVSS
VL: DIQMTQSPSSLSASVGDRVTITCQASQDIKKYLNWYHQKPGKVPELLMHDASNLETGVPSRFSGRGSGTDFTLTISSLQPEDIGTYYCQQYDNLPPLTFGGGTKVEIKR
notes: Antibody as used in the AM14 ELISA, detected with an HRP-labeled secondary antibody

Assays:
[1] = target: RSV A + RSV B bivalent composition (RSV subtype A; RSV subtype B); experiment: AM14 Fab titration by SEC; High-Slow 2 cycle; T0
[2] = target: RSV A + RSV B bivalent composition (RSV subtype A; RSV subtype B); experiment: AM14 Fab titration by SEC; High-Slow 2 cycle; 8 M 40°C
[3] = target: RSV A + RSV B bivalent composition (RSV subtype A; RSV subtype B); experiment: AM14 Fab titration by SEC; High-Slow 2 cycle; 3 M 2-8°C
[4] = target: RSV A + RSV B bivalent composition (RSV subtype A; RSV subtype B); experiment: AM14 Fab titration by SEC; Low-Fast cycle; 1 M 2-8°C (second value)
[5] = target: RSV A + RSV B bivalent composition (RSV subtype A; RSV subtype B); experiment: AM14 Fab titration by SEC; High-Slow 2 cycle; 1 M 2-8°C (second value)
[6] = target: T1, RSV F protein of subtype A comprising a polypeptide of SEQ ID NO: 1 and a polypeptide of SEQ ID NO: 2 (RSV subtype A, UniProt P11209 137-513; P03420 26-109); experiment: AM14 ELISA; F17 (pH 7, 50 mM NaCl, 4.5% trehalose); 2 wk 5°C
T1 construct: Stabilized prefusion F trimer made of three F2-F1 heterodimers; Produced recombinantly in CHO cells; also called RSV A; RSVA
T1 chain 1: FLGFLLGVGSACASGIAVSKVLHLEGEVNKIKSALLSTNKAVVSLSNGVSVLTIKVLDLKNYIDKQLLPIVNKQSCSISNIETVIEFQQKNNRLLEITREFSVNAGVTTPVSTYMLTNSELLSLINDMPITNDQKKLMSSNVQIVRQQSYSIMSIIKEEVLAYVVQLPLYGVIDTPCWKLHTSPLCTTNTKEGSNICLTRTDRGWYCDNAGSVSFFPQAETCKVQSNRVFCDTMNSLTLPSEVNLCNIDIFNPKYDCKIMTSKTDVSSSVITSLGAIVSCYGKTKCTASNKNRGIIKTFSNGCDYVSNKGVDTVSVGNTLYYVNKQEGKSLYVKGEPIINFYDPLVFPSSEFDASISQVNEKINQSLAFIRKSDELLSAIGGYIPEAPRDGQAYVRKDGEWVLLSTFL
T1 chain 2: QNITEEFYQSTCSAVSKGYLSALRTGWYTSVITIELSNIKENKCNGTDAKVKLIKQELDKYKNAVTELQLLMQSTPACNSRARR

[7] = target: T1, RSV F protein of subtype A comprising a …; experiment: AM14 ELISA; F14 (pH 7, 50 mM NaCl, 4.5% sucrose); 1 wk 25°C
[8] = target: T1, RSV F protein of subtype A comprising a …; experiment: AM14 ELISA; F16 (pH 6, 0 mM NaCl, 0% sucrose); 2 wk 25°C
[9] = target: T1, RSV F protein of subtype A comprising a …; experiment: AM14 ELISA; F5 (pH 6, 100 mM NaCl, 9.0% sucrose); 1 wk 25°C
[10] = target: T1, RSV F protein of subtype A comprising a …; experiment: AM14 ELISA; F8 (pH 7, 50 mM NaCl, 0% sucrose); 1 wk 25°C
[11] = target: T1, RSV F protein of subtype A comprising a …; experiment: AM14 ELISA; F3 (pH 8, 0 mM NaCl, 9% sucrose); T0
[12] = target: T1, RSV F protein of subtype A comprising a …; experiment: AM14 ELISA; F14 (pH 7, 50 mM NaCl, 4.5% sucrose); T0
[13] = target: T1, RSV F protein of subtype A comprising a …; experiment: AM14 ELISA; F10 (pH 7, 50 mM NaCl, 4.5% sucrose); 2 wk 25°C
[14] = target: T1, RSV F protein of subtype A comprising a …; experiment: AM14 ELISA; F6 (pH 7, 0 mM NaCl, 4.5% sucrose); 1 wk 5°C
[15] = target: T1, RSV F protein of subtype A comprising a …; experiment: AM14 ELISA; F11 (pH 7, 50 mM NaCl, 9.0% sucrose); 2 wk 25°C
[16] = target: T1, RSV F protein of subtype A comprising a …; experiment: AM14 ELISA; F1 (pH 8, 100 mM NaCl, 0% sucrose); 1 wk 25°C

Molecule | Prefusion Content (%) [1] | Prefusion Content (%) [2] | Prefusion Content (%) [3] | Prefusion Content (%) [4] | Prefusion Content (%) [5] | AM14 prefusion content (%), relative to standard [6] | AM14 prefusion content (%), relative to standard [7] | AM14 prefusion content (%), relative to standard [8] | AM14 prefusion content (%), relative to standard [9] | AM14 prefusion content (%), relative to standard [10] | AM14 prefusion content (%), relative to standard [11] | AM14 prefusion content (%), relative to standard [12] | AM14 prefusion content (%), relative to standard [13] | AM14 prefusion content (%), relative to standard [14] | AM14 prefusion content (%), relative to standard [15] | AM14 prefusion content (%), relative to standard [16]
AM14 Fab | 61% | 61% | 62% | 53% | 65% |  |  |  |  |  |  |  |  |  |  | 
B1 |  |  |  |  |  | 64% | 77% | 76% | 97% | 86% | 95% | 102% | 81% | 101% | 82% | 112%
